Tested on: N_EGF_TCS_SK

**Q.** With thrombin as the substance, how does the “cleavage of the purified construct by thrombin (N-terminal protein sequencing)” value read?
**A.** The thrombin cleavage was indeed found to be true in case of the purified construct, after treatment with thrombin

From US20130136731
